Article PMC10397247
Values belong to the binder of their own block, whether it stands above or below them.

Columns and labels:
[1] = biological target: T1, P8SHb; assay: two-hybrid library CCNG1;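 further: natural log of median RNA to DNA barcode read ratio; higher means stronger binding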
T1 chain: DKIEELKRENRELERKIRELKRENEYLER

[2] = biological target: T2, P9SHb; assay: two-hybrid library CCNG1;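 further: natural log of median RNA to DNA barcode read ratio; higher means stronger binding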
T2 chain: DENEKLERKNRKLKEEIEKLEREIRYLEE

[3] = biological target: T3, 4H797-bN; assay: two-hybrid library CCNG1;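 further: natural log of median RNA to DNA barcode read ratio; higher means stronger binding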
T3 chain: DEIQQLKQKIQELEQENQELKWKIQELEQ

[4] = biological target: T4, 4H967-bN; assay: two-hybrid library CCNG1;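 further: natural log of median RNA to DNA barcode read ratio; higher means stronger binding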
T4 chain: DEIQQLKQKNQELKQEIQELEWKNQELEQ

[5] = biological target: T5, 4H908-bN; assay: two-hybrid library CCNG1
T5 chain: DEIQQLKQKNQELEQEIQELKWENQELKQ

[6] = biological target: T6, 4H754-bN; assay: two-hybrid library CCNG1
T6 chain: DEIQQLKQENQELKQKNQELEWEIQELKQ

[7] = biological target: T7, 4H687-bN; assay: two-hybrid library CCNG1
T7 chain: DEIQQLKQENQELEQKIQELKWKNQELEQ

[8] = biological target: T8, 4H607-bN; assay: two-hybrid library CCNG1
T8 chain: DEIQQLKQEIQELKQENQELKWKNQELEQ

[9] = biological target: T9, 4H883-bN; assay: two-hybrid library CCNG1
T9 chain: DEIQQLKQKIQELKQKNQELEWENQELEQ

[10] = biological target: T10, 4H953-bN; assay: two-hybrid library CCNG1
T10 chain: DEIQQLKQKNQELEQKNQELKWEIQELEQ

[11] = biological target: T11, 4H717-bN; assay: two-hybrid library CCNG1
T11 chain: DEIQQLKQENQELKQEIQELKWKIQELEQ

[12] = biological target: T12, 4H72-bN; assay: two-hybrid library CCNG1
T12 chain: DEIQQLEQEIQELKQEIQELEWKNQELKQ

[13] = biological target: T13, 4H918-bN; assay: two-hybrid library CCNG1
T13 chain: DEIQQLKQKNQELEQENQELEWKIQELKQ

[14] = biological target: T14, O9; assay: two-hybrid library CC0; conditions: mean of both orientations
T14 chain: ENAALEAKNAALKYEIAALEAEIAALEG

[15] = biological target: T15, O7; assay: two-hybrid library CC0; conditions: mean of both orientations
T15 chain: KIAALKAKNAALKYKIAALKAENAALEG

[16] = biological target: T16, O6; assay: two-hybrid library CC0; conditions: mean of both orientations
T16 chain: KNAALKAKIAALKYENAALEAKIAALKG

[17] = biological target: T17, O8; assay: two-hybrid library CC0; conditions: mean of both orientations
T17 chain: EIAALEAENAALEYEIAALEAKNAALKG

[18] = biological target: T18, 4H949-bH; assay: two-hybrid library CCNG1
T18 chain: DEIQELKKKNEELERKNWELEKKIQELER

[19] = biological target: T19, 4H349-bH; assay: two-hybrid library CCNG1
T19 chain: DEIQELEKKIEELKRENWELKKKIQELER

[20] = biological target: T20, 4H56-bH; assay: two-hybrid library CCNG1
T20 chain: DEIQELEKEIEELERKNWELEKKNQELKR

[21] = biological target: T21, 4H730-bH; assay: two-hybrid library CCNG1
T21 chain: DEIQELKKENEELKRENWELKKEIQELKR

[22] = biological target: T22, 4H3381-bH; assay: two-hybrid library CCNG1
T22 chain: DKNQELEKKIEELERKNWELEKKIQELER

[23] = biological target: T23, 4H3297-bH; assay: two-hybrid library CCNG1
T23 chain: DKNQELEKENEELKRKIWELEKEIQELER

[24] = biological target: T24, 4H3041-bH; assay: two-hybrid library CCNG1
T24 chain: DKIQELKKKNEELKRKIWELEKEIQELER

[25] = biological target: T25, 4H3364-bH; assay: two-hybrid library CCNG1
T25 chain: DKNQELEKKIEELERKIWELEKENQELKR

[26] = biological target: T26, 4H796-bH; assay: two-hybrid library CCNG1
T26 chain: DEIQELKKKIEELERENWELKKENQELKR

[27] = biological target: T27, 4H2931-bH; assay: two-hybrid library CCNG1
T27 chain: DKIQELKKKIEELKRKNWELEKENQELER

interaction score [1]: -0.644
interaction score [2]: 0.191
Binder: DKIEELKRENRELERKIRELKRENEYLER [P8SHb]

interaction score [18]: -0.384
interaction score [19]: -0.83
interaction score [20]: -0.623
interaction score [21]: -0.532
interaction score [22]: -0.508
interaction score [23]: 0.571
interaction score [24]: -0.279
interaction score [25]: -0.507
interaction score [26]: -0.865
interaction score [27]: -0.492
Binder: DKIQELKKKIEELKRKNWELEKENQELER [4H2931-bH]

The remaining lines, values behind:

Binder: DEIQQLKQEIQELKQENQELKWKNQELEQ [4H607-bN]
interaction score [1]: -1.61
interaction score [3]: -0.52
interaction score [4]: -0.227
interaction score [5]: -0.294
interaction score [6]: -1.32
interaction score [7]: -1.48
interaction score [8]: 0.145
interaction score [9]: -0.644
interaction score [10]: -1.56
interaction score [11]: -1.11
interaction score [12]: -1.65
interaction score [13]: 0.0461

Binder: KNAALKAKIAALKYENAALEAKIAALKG [O6]
interaction score [14]: -2.41
interaction score [15]: -2.72
interaction score [16]: -2.7
interaction score [17]: -1.78
